Holding throughout (test): fluorescence polarisation; fluorescence anisotropy; 1 nM FlAsH-labeled His6-SUMO-yUfd1 peptide, His6-yNpl4^113–580 in two-fold dilution series; 25 °C; 50 mM Tris-HCl pH 8.0, 100 mM NaCl, 5 mM β-mercaptoethanol, 0.1 g/L BSA
What all share (settings): both partners purified

One assay has as its target T1, His6-yNpl4^113–580 Y424A (Saccharomyces cerevisiae, UniProt P33755 113-580, Y424A).
T1 construct: also called yNpl4 Y424A; source: E. coli Rosetta (DE3), purified (Ni-NTA, Resource Q); not shown: His6, N-terminal, kept
T1 sequence (looked up): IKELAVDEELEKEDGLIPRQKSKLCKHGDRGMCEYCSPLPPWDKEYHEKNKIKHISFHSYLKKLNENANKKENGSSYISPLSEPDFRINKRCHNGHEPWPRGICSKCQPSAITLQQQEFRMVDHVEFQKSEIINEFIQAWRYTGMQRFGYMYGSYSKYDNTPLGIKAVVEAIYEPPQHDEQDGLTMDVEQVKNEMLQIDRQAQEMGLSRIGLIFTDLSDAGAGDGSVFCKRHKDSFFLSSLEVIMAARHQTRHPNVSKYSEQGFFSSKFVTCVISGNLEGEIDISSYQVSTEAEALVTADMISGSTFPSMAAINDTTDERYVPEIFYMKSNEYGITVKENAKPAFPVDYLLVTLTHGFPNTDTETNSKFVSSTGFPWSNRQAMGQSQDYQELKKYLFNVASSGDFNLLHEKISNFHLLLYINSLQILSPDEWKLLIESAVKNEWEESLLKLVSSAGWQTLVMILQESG

A further assay addresses T2, His6-yNpl4^113–580 (Saccharomyces cerevisiae, UniProt P33755 113-580).
T2 construct: codon-optimized synthetic cDNA; also called WT; WT #1; source: E. coli Rosetta (DE3), purified (Ni-NTA, Resource Q); also in lysate, mixed with cells expressing GST-yUfd1 for co-purification; not shown: His6, N-terminal, kept
T2 sequence (looked up): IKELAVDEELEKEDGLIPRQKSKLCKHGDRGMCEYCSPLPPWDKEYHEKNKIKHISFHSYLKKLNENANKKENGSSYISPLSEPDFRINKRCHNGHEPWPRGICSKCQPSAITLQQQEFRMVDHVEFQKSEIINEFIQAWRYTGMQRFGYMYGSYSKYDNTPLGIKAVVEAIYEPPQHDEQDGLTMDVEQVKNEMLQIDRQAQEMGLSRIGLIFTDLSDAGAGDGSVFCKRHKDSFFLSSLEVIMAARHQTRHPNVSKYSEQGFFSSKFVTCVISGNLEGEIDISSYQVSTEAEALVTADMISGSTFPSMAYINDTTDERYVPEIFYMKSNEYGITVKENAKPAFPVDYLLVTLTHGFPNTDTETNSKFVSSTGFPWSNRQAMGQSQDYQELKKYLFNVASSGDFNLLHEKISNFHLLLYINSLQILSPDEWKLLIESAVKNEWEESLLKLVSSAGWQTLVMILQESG

The target in another assay is T3, His6-yNpl4^113–580 F326A (Saccharomyces cerevisiae, UniProt P33755 113-580, F326A).
T3 construct: also called yNpl4 F326A; source: E. coli Rosetta (DE3), purified (Ni-NTA, Resource Q); not shown: His6, N-terminal, kept
T3 sequence (looked up): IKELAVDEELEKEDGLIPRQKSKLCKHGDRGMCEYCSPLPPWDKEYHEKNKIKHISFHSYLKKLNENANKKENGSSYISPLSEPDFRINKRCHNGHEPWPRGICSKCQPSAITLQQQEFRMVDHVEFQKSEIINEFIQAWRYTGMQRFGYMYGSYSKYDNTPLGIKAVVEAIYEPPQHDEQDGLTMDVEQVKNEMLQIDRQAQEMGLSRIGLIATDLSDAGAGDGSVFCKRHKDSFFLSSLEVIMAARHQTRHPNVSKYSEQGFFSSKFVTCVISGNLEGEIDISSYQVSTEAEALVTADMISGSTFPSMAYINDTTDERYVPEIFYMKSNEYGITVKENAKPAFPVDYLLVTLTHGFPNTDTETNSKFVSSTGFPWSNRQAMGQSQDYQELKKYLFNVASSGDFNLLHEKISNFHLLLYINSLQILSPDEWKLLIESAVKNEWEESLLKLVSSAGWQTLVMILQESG

The target of a further assay is T4, His6-yNpl4^113–580 L296A (Saccharomyces cerevisiae, UniProt P33755 113-580, L296A).
T4 construct: also called yNpl4 L296A; source: E. coli Rosetta (DE3), purified (Ni-NTA, Resource Q); not shown: His6, N-terminal, kept
T4 sequence (looked up): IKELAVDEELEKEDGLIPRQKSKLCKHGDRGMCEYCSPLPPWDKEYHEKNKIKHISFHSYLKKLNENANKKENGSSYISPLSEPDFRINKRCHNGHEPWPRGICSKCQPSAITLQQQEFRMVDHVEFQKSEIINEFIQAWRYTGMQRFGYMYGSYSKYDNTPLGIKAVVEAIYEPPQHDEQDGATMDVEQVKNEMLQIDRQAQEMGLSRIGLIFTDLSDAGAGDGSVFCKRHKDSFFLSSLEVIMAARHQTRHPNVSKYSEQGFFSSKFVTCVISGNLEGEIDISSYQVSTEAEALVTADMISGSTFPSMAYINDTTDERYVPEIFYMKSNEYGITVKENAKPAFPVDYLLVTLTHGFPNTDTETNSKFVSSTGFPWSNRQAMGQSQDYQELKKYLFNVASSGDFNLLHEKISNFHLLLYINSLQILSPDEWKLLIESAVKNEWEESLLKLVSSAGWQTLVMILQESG

“And” between values parts separate entries of the source, which are not always exact repeats. Identical values can stand only once. No end group written: not given here.

B1: FlAsH-labeled His6-SUMO-yUfd1^288–305-GWCCPGCC (peptide, UniProt P53044 288-305, looked up)
chain: {His6-SUMO}-EPAKLDLPEGQLFFGFPMGWCCPGCC
modifications: cysteine pairing not given here; also: FlAsH label bound to CCPGCC motif
notes: the assay methods print 280-305; also called yUfd1-FlAsH; yUfd1 WT; source: E. coli Rosetta (DE3) (pCold-SUMO), purified (Ni-NTA, Resource Q), labeled with FlAsH-EDT2; not shown: His6, N-terminal, kept; SUMO, N-terminal, kept
One may read the Kd as the concentration at which binding is half-saturated. For B1, the Kd is 8450 nM with His6-yNpl4^113–580 Y424A; 85.7 nM and 99.4 nM in the assay with His6-yNpl4^113–580; 257 nM in the assay with His6-yNpl4^113–580 F326A; 7020 nM with His6-yNpl4^113–580 L296A.

These data come from article PMC6910952 (Nature Communications, 2019).
